Reference: PMC7083938, “NELL2-Robo3 complex structure reveals mechanisms of receptor activation for axon guidance” (Nature Communications, 2020)
Numbering of substitutions follows the chain as printed.

Columns and labels:
Assay in all cases: flow cytometry on cells; biotinylated ligand at various concentrations, 30 min at 4 °C in PBS + 0.1% BSA, on Drosophila S2 cells displaying the partner (C-terminal FLAG, rat Neurexin-1 transmembrane helix); Cy5-streptavidin; gated on anti-FLAG positive cells; MFI fit to a single-site model; apparent KD
Settings in all cases: one partner purified
[1] = target: T1, hRobo3 FN1-3 R630A, biotinylated (human, UniProt Q96MS0 549-870, R630A, biotin on the Avi-tag (BirA))
T1 construct: human Robo3, FN domains 1-3, P549-L870; source: High Five cells (baculovirus), purified, biotinylated with BirA (general methods)
T1 sequence (looked up): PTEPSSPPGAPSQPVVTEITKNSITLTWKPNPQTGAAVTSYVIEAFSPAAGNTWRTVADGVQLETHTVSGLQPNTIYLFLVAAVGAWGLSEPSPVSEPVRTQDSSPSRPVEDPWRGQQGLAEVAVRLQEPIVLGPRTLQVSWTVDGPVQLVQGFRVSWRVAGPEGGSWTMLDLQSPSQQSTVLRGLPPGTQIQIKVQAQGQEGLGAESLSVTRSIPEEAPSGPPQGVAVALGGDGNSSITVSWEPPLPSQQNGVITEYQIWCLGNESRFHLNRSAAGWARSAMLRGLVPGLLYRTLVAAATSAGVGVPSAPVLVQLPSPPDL

[2] = target: T2, hRobo3 FN1-3 T604A, biotinylated (human, UniProt Q96MS0 549-870, T604A, biotin on the Avi-tag (BirA))
T2 construct: human Robo3, FN domains 1-3, P549-L870; source: High Five cells (baculovirus), purified, biotinylated with BirA (general methods)
T2 sequence (looked up): T1 sequence (looked up) with T56A, A82R

[3] = target: T3, hRobo3 FN1-3, biotinylated (wild type) (human, UniProt Q96MS0 549-870, biotin on the Avi-tag (BirA))
T3 construct: human Robo3, FN domains 1-3, P549-L870; also called WT hRobo3 FN; Robo3FN1-3 WT; source: High Five cells (baculovirus), purified (Ni-NTA, SEC), biotinylated with BirA
T3 sequence (looked up): T1 sequence (looked up) with A82R

[4] = target: T4, hRobo3 FN1-3 W635A, biotinylated (human, UniProt Q96MS0 549-870, W635A, biotin on the Avi-tag (BirA))
T4 construct: human Robo3, FN domains 1-3, P549-L870; source: High Five cells (baculovirus), purified, biotinylated with BirA (general methods)
T4 sequence (looked up): T1 sequence (looked up) with A82R, W87A

[5] = target: T5, hRobo3 FN1-3 I624A/L626A, biotinylated (human, UniProt Q96MS0 549-870, I624A | L626A, biotin on the Avi-tag (BirA))
T5 construct: human Robo3, FN domains 1-3, P549-L870; source: High Five cells (baculovirus), purified, biotinylated with BirA (general methods)
T5 sequence (looked up): T1 sequence (looked up) with I76A, L78A, A82R

Kd [1]: ≥ 100 µM
Kd [2]: 7.9 µM
Kd [3]: 0.89 µM
Kd [4]: 2.9 µM
Kd [5]: 6.5 µM
B1: hNELL2 EGF1-6 displayed on S2 cells (domain or fragment)
chain: not shown
notes: human NELL2, EGF domains 1-6, G397-T637; also called NELL2EGF1-6 WT (Actin 5C, C-terminal FLAG); FLAG-tagged NELL2 EGF1-6; source: Drosophila S2 cells, transiently transfected, on the cell surface; not shown: FLAG, C-terminal, kept; transmembrane helix of rat Neurexin-1, C-terminal, kept
